Data published in US20200339690A1 (JOUNCE THERAPEUTICS, published 2020).

Assays:
human LILRA5 = biological target: T1, human LILRA5 (human, UniProt A6NI73 42-299); assay: flow cytometry, LILRA5 CHOs
T1 construct: Over-expressed on CHO-s cells; also called hLILRA5
Protocol: (§1) To test for specificity to hLILRB2 and not towards any of the ten LILR family members, a multiplexed cell-based barcoding approach was used by staining cells with Far Red and/or Violet Cell Trace dyes (Thermo Scientific) according to manufacturer's protocol or left unstained. In brief, cells were washed twice with 1×DPBS and then incubated with diluted dye in 1×DPBS for 20 minutes at 37° C., mixing gently every 5-10 minutes. Dye labeling was quenched by adding equal volume of 100% HI-FBS (Sigma) to the cells. Note that LILRB1, LILRB2, LILRB3, LILRB4, and LILRB5 cell lines are also GFP-positive, while LILRA1, LILRA2, LILRA3, LILRA4, LILRA5, and LILRA6 cell lines are GFP-negative. The cells were then washed twice in 1×DPBS and then all 11 cell lines were combined per well in a 96-well round bottom tissue-culture treated plate. At least 25×10³ cells of each cell-line were plated per well. Cells were then re-suspended in primary antibody (anti-LILRB2 mAbs or control) prepared in FACS buffer (1×DPBS containing 2% HI-FBS (Sigma)+0.05% Sodium Azide). After incubation at 4° C. for 30 minutes, cells were washed twice with 1×DPBS and re-suspended in anti-human IgG-PE (BioLegend) diluted 1:200 in FACS buffer. Following a 30 minute incubation at 4° C., protected from light, cells were washed in 1×DPBS and re-suspended in fix buffer (1.5% paraformaldehyde diluted in 1×DPBS). Samples were analyzed using the Celesta flow cytometer analyzer (BD Biosciences). Geometric mean fluorescence intensity (gMFI) of PE was determined for each antibody across each cell line. Background MFI was detected with isotype control and relative binding of antibodies tested was measured as a fold over isotype.

[1] = biological target: T2, human LILRB2 expressed on cells (human, UniProt Q8N423 22-597); assay: HLA-A2:LILRB2 blocking; HLA-A2 tetramer on primary human macrophages, flow cytometry
T2 construct: CHO-s cells over-expressing full-length human LILRB2, or primary human macrophages and dendritic cells; also called hLILRB2-CHO-s; hLILRB2+ CHO-s
T2 sequence (Q8N423 other isoform, or with tags, fused parts or gaps limits assumed): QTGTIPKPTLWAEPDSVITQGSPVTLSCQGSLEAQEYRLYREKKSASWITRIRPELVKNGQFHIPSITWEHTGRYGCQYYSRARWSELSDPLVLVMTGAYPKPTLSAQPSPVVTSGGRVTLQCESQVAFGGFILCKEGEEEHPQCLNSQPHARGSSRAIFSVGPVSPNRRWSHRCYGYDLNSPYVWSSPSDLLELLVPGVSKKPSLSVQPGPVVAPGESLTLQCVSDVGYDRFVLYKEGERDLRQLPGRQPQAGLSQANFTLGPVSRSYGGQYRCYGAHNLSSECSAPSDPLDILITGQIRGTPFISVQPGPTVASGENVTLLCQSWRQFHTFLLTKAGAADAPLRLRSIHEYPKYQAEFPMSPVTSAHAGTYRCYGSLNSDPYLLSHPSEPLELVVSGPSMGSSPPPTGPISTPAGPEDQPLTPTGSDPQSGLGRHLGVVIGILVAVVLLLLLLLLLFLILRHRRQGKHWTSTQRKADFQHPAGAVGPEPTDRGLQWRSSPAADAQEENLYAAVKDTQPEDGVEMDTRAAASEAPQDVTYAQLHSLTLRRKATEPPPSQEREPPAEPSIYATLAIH
Protocol: (§2) The potency of select humanized variants in blocking the interaction of HLA-G and HLA-A2 with primary human macrophage-expressed hLILRB2 were assessed. Primary human monocytes were differentiated into macrophages in the presence of M-CSF. After seven days of differentiation, 1×10⁵ HMDMs were plated in 96-well round-bottom tissue culture-treated plate and washed twice with 1×DPBS (Gibco) and then incubated with 50 μL primary antibody (anti-LILRB2 mAbs or control) prepared in FACS buffer (1×DPBS containing 2% HI-FBS (Sigma)+0.05% Sodium Azide). After incubation with mAbs for 30 minutes at 4° C., cells were washed twice in FACS buffer and then resuspended in 50 μL of FACS buffer containing 5 μg/mL APC-conjugated HLA-G or HLA-A2 tetramer (Fred Hutch). Cells were incubated protected from light for 30-60 minutes at 4° C. After incubation with tetramer, cells were washed in FACS buffer and re-suspended in fix buffer (1.5% paraformaldehyde diluted in 1×DPBS). Samples were analyzed using the Celesta flow cytometer analyzer (BD Biosciences).

human LILRB2-His = human LILRB2-His (human, UniProt Q8N423 22-460); assay: SPR, Sierra Sensors MASS-2; antibody captured on anti-human Fc, LILRB2-His 65 to 0.27 nM, 1:1 Langmuir fit
human LILRB2-His, sequence (Q8N423 other isoform, or with tags, fused parts or gaps): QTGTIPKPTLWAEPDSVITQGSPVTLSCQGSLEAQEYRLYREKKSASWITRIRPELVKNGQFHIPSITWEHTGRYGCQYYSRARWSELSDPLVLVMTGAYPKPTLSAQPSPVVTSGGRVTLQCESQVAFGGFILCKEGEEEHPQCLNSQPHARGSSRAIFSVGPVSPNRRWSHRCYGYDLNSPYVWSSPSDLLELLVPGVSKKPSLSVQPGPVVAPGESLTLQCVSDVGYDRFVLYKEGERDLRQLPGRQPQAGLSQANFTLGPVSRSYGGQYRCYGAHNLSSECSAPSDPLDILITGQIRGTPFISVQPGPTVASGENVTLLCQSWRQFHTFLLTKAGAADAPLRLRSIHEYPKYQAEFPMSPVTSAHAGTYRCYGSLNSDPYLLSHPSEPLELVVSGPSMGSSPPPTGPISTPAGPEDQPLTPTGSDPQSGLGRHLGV
Protocol: Using a Mass-2 (Sierra Sensors) high capacity amine chip preimmobilized with AffiniPure Goat Anti-Human IgG, Fcγ Fragment Specific antibody, humanized antibodies were captured on the anti-human surface and then binding to human LILRB2-His was measured by flowing six different concentrations from 65 to 0.27 nM of the analyte over the antibody surface. The anti-LILRB2 surface was removed (10 mM Glycine, pH 2.0) and recaptured between all concentrations or buffer only cycles. The data was analyzed using the Sierra Analyzer software (version 3.1.14). All curves were double subtracted and fit to a 1:1 Langmuir Fit.

human LILRB5 = biological target: T3, human LILRB5 (human, UniProt O75023 24-590); assay: flow cytometry, LILRB5 CHOs
T3 construct: Over-expressed on CHO-s cells; also called hLILRB5
T3 sequence (O75023 24-590 P542R limits assumed): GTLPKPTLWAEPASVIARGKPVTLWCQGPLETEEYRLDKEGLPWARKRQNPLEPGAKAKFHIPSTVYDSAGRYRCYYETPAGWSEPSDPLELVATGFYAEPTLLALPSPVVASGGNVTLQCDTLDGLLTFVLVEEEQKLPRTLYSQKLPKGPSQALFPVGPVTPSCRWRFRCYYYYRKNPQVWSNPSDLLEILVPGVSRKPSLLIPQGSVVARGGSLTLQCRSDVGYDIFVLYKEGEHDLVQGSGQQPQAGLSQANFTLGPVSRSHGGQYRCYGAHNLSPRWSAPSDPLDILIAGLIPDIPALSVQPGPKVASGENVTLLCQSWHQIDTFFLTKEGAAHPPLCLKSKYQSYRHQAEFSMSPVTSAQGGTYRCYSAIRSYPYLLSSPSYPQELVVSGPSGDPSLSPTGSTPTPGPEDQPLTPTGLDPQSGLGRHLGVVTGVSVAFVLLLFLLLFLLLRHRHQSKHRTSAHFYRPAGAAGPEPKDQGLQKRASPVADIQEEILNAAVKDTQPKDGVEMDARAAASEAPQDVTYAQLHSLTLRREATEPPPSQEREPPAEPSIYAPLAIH
Protocol: as §1

human LILRA3 = biological target: T4, human LILRA3 (human, UniProt Q8N6C8 24-439); assay: flow cytometry, LILRA3 CHOs
T4 construct: Over-expressed on CHO-s cells; also called hLILRA3
T4 sequence (Q8N6C8 24-439 limits assumed): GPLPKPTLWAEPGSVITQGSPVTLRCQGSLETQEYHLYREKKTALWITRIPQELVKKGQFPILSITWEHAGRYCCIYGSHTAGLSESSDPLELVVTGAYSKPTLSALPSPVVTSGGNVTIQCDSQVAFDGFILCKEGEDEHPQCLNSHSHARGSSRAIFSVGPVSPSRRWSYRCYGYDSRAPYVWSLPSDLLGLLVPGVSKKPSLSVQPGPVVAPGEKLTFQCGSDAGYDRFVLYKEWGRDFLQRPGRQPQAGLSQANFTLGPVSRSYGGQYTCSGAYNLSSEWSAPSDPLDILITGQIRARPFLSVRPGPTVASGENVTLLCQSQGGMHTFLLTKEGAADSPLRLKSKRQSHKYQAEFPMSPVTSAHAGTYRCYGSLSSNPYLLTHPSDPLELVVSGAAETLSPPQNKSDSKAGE
Protocol: as §1

[2] = biological target: T2, human LILRB2 expressed on cells; assay: flow cytometry, binding to hLILRB2 CHOs
[3] = biological target: T2, human LILRB2 expressed on cells; assay: HLA-G:LILRB2 blocking; HLA-G tetramer on primary human macrophages, flow cytometry
Protocol: as §2

human LILRA6 = biological target: T5, human LILRA6 (human, UniProt Q6PI73 24-481); assay: flow cytometry, LILRA6 CHOs
T5 construct: Over-expressed on CHO-s cells; also called hLILRA6
T5 sequence (Q6PI73 24-481 limits assumed): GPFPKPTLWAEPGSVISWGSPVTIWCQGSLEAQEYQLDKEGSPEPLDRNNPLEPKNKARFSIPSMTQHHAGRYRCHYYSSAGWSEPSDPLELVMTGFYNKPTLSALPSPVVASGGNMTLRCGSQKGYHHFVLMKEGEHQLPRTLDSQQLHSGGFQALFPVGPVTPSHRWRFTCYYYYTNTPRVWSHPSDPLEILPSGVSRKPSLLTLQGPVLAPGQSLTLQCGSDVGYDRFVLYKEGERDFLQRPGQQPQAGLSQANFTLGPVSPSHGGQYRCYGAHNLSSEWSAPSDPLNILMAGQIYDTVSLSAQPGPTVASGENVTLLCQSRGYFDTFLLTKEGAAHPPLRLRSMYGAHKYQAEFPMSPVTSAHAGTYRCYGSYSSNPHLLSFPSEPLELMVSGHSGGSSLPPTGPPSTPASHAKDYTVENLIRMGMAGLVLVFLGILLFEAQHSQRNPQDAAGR
Protocol: as §1

human LILRA4 = biological target: T6, human LILRA4 (human, UniProt P59901 24-499); assay: flow cytometry, LILRA4 CHOs
T6 construct: Over-expressed on CHO-s cells; also called hLILRA4
T6 sequence (P59901 other isoform, or with tags, fused parts or gaps limits assumed): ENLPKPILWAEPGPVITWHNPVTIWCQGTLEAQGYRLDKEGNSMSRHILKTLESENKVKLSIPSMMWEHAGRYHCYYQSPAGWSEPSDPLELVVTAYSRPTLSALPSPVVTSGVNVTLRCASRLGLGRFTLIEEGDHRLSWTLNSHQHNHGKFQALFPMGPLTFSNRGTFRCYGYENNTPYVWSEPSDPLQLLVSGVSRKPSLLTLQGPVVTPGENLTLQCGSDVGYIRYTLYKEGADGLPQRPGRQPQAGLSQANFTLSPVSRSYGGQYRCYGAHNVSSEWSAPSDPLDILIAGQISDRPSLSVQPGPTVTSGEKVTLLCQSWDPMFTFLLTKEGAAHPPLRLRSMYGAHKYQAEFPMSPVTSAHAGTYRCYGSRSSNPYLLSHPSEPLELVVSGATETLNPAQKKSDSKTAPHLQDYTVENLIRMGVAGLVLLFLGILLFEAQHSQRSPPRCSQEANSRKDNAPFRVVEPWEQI
Protocol: as §1

[4] = biological target: T2, human LILRB2 expressed on cells; assay: cell-based or functional assay
human LILRA2 = biological target: T7, human LILRA2 (human, UniProt Q8N149 24-483); assay: flow cytometry, LILRA2 CHOs
T7 construct: Over-expressed on CHO-s cells; also called hLILRA2
T7 sequence (Q8N149 24-483 S135L limits assumed): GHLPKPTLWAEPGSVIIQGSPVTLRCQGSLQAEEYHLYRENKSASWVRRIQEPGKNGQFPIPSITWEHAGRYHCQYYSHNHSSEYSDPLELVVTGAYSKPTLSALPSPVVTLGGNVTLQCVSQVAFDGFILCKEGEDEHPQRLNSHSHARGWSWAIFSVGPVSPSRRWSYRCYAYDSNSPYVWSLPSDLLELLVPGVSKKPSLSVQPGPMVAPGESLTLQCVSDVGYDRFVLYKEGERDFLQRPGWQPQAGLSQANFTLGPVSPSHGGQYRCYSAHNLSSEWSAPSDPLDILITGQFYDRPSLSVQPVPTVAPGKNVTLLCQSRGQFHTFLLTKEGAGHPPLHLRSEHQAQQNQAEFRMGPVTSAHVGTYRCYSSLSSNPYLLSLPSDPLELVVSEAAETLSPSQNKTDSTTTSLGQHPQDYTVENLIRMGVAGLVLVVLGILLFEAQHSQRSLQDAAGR
Protocol: as §1

human LILRA1 = biological target: T8, human LILRA1 (human, UniProt O75019 17-489); assay: flow cytometry, LILRA1 CHOs
T8 construct: Over-expressed on CHO-s cells; also called hLILRA1
T8 sequence (O75019 17-489 limits assumed): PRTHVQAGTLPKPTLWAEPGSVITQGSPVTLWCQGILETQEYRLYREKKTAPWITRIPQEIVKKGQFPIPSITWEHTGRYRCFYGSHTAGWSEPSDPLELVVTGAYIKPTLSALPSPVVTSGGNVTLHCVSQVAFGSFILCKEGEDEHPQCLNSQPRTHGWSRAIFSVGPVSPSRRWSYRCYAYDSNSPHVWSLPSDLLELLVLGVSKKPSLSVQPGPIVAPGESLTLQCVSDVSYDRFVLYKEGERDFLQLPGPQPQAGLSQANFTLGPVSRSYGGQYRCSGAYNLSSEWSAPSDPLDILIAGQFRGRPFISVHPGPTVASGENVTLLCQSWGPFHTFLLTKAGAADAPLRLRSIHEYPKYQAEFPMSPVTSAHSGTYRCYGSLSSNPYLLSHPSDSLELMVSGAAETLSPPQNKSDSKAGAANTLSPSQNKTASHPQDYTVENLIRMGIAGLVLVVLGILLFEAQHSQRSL
Protocol: as §1

human LILRB3 = biological target: T9, human LILRB3 (human, UniProt O75022 24-631); assay: flow cytometry, LILRB3 CHOs
T9 construct: Over-expressed on CHO-s cells; also called hLILRB3
Protocol: as §1

human LILRB1 = biological target: T10, human LILRB1 (human, UniProt Q8NHL6 24-650); assay: flow cytometry, LILRB1 CHOs
T10 construct: Over-expressed on CHO-s cells; also called hLILRB1
T10 sequence (Q8NHL6 24-650 limits assumed): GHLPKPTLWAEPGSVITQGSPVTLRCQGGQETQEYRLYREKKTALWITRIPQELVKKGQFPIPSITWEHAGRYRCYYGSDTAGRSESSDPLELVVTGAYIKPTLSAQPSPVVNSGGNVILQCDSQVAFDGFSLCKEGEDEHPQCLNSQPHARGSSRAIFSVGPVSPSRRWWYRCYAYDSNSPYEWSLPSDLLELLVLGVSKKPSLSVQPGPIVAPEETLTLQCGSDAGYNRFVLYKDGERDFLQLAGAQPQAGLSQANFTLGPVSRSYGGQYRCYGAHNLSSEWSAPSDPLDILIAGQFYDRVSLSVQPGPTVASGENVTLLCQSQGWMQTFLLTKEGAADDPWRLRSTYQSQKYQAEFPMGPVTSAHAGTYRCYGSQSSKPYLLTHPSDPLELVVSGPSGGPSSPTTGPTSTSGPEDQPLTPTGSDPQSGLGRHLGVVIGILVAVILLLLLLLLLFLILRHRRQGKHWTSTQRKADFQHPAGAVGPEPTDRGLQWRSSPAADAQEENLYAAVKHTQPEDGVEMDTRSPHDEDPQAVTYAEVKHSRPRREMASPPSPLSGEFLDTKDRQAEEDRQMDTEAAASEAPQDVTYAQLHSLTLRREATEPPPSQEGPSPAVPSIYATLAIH
Protocol: as §1

[5] = biological target: T2, human LILRB2 expressed on cells; assay: flow cytometry, LILRB2 CHOs
human LILRB4 = biological target: T11, human LILRB4 (human, UniProt Q8NHJ6 22-448); assay: flow cytometry, LILRB4 CHOs
T11 construct: Over-expressed on CHO-s cells; also called hLILRB4
Protocol: as §1

T1 sequence (A6NI73 42-299 limits assumed): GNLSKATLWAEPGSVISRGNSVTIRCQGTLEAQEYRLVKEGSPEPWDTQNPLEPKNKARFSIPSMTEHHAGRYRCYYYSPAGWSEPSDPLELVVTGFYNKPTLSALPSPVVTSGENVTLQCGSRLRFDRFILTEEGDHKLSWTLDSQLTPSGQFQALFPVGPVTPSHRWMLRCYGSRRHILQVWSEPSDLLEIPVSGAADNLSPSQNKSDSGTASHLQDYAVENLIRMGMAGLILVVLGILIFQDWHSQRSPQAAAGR

B1: J-19.h2 (antibody, human IgG4 S228P, kappa, V domains shown)
VH: QITLKESGPTLVKPTQTLTLTCTFSGFSLNTYAMGVSWIRQPPGKALEWLASIWWNGNKYNNPSLKSRLTVTKDTSKNQVVLTMTNMDPVDTATYYCAHSRIIRFTDYVMDAWGQGTLVTVSS
VL: DIVMTQSPSSLSASVGDTVTITCRASEDIYNDLAWYQQKPGKAPQLLLYNANSLHTGVPSRFSGSGSGTDYTLTISTLQPEDFATYYCQQYYDYPLTFGPGTKVHIKR
notes: Humanized, human IgG4 backbone
Human LILRA5
  binding (fold over iso): 0.86 fold over iso
  binding result: no binding
[1]
  EC50: 0.087 nM
Human LILRB2-His
  Kd: 4.58 nM
  koff: 0.00238 s⁻¹
  kon: 521000 M⁻¹ s⁻¹
Human LILRB5
  binding (fold over iso): 0.76 fold over iso
  binding result: no binding
Human LILRA3
  binding (fold over iso): 0.83 fold over iso
  binding result: no binding
[2]
  EC50: 0.447 nM
[3]
  EC50: 0.122 nM
Human LILRA6
  binding (fold over iso): 0.74 fold over iso
  binding result: no binding
Human LILRA4
  binding (fold over iso): 0.84 fold over iso
  binding result: no binding
[4]
  EC50, IL-6 production by LPS-stimulated HMDMs: 0.186 nM
  EC50, TNFa production by LPS-stimulated HMDMs: 0.12 nM
  IC50, CCL2 production by LPS-stimulated HMDMs: 0.011 nM
  IC50, IL-10 production by LPS-stimulated HMDMs: 0.702 nM
Human LILRA2
  binding (fold over iso): 0.66 fold over iso
  binding result: no binding
Human LILRA1
  binding (fold over iso): 0.89 fold over iso
  binding result: no binding
Human LILRB3
  binding (fold over iso): 0.81 fold over iso
  binding result: no binding
Human LILRB1
  binding (fold over iso): 0.73 fold over iso
  binding result: no binding
[5]
  binding (fold over iso): 74.5 fold over iso
Human LILRB4
  binding (fold over iso): 0.9 fold over iso
  binding result: no binding
